According to a protein production outcome set (Wang et al. 2014):

Assay: label from the status in PepcDB records

Sequence | protein production
MTTSATSGTGPTANSMRRALKRARDGVALDVTEAAVLLQARGEDLDDLTASAARVRDAGLEAAGRAGVITYSKSVFIPLTRLCRDKCHYCTFVTVPGKLRRAGHGMFMSPDEVLDIARKGAALGCKEALITLGDKPEDRWPEAREWLDAHGYDDTIAYVRAISIRILEETGLLPHLNPGVMSWTDFQRLKPVAPSMGMMLETTATRLWSEPGGPHHGSPDKEPAVRLRVLEDAGRSSVPFTSGILIGIGETYEERAESLFALRKISRAYHGIQELIIQNFRAKPDTAMRGMPDAELDELIATVAVARHIMGPRACLQAPPNLVDSEYGRLIGAGIDDWGGVSPLTIDHVNPERPWPQIDLLREQSAQAGFELRERLCVYPEFVQRGEPWLDPRLLPHVRALADPASGLAHADATVEGHPWQEPEEAFVAQGRTDLHHSIDTEGRTGDRRDDFDVVYGDWEALREAAAPGMVPERIDTDVRQALATAANDPTRLTDAEALALLHADGPALDALTRIADDVRKAAVGDDVTYIVTRNINFTNVCYTGCRFCAFAQRRTDADAYTLSLEQVADRAQQAWDVGAVEVCMQGGIHPDLPGTAYFDIAKAVKERVPGMHVHAFSPMEVVNGATRTGLSIREWLTAAKEAGLDSIPGTAAEILDDEVRWVLTKGKLPTATWIEVITTAHELGIRSSSTMMYGHVDQPRHWLGHFRTLARIQQQTGGFTEFVTLPFIHTNAPVYLAGIARPGPTTRDNRAVMAMARLLLHPHIPNIQTSWVKLGTEGAAEMLRSGANDLGGTLMEETISRMAGSSYGSYKSVKDLIAVAEAAGRPAKPRTTLYGEVPQERQRAAAASDGHLPELLPVLD | failed
YYFKEYHLPYPKGVIFSGNIPPCFYHKSDPPLHLLPDKIFLEEVSKLGGIPGKIIKEKQFVEYFVPIIKNDFKLIENYYFQQKQEKFPVKSLICSGKDDKFRVKDLVQWENYFIDKCSISLFKGGHFYIDDNIASLCNQIKDFIY | failed
MSSAIRKAAKGGQCTPNIAGVCNDNPETVVLCRFPGETHGAGLKSGGLGAGFGCGCRRGAIDGRGAGLSREDKEFYMRRSQLRTIRRLEALGVVGVKGRLK | failed
MLYIIGLGLYDEKDITVRGLEAVKSCDLVFLEHYTAILQCDVAKLEEFYGKKVIIGDRDLVETEADQILEPAKTKNVALLVVGDVYGATTHSDIFVRCQKMGIEVKVIHNASIMNAIGCSGLQLYRFGQTVSVCFWSEHWRPSSYYPKIKINRDNNMHTLVLLDIKVKERSEENIIKGRDIFEPPRYMTINQCIEQLLEVEKEQHLGVYDEDTMVVGMARVACADQKIVYGKMKDLLHYDFGAPMHCLLIPAPQVDDPELDHLEYFKYKPE | not failed
MKIIAFGASTSSTSINKALATFTANLVDGAQVQVLNINDYSVPMFSEDLEKEIGQAEGAQAFLRDLAQADAFVISFAEHNGHYPAAYKNLFDWATRINRALFGDKPAVYLSTSPGPGGAKSVLAAATASAPFFGGNVKASVSVPSFYDNFDLEQGVVTKPEIVAELKAAVAKLSA | failed
MNGMLLSRIKKKAMELAEDLKLVDFSFGLPYTWVLVEGIEGRALGVAMTLPEEVQRYTNSIEEPSLLEFIDKADSLNIIERTLGVAAINAVSQYYIDLREAKWIDVTELIQQDEIKRIAIIGNMPPVVRTLKEKYEVYVFERNMKLWDRDTYSDTLEYHILPEVDGIIASASCIVNGTLDMILDRAKKAKLIVITGPTGQLLPEFLKGTKVTHLASMKVTNIEKALVKLKLGSFKGFESESIKYVIEV | not failed
MMRAKVNQGINLNDYNGVWVIGEQREGKINPVTIELIGEGRKLADQLGKELAVVIAGYEVEKEVKELLHYSVDKVYYINDPLLKDFTTDGYAISIANLIERKKPEVVLVGATSIGRDIAPRIAGKVGTGLTADCTKLEIDSTDNKLLQTRPAFGGNLMATIVCPKNRPQMSTVRPGVMAKAVRNESETGILEVVTPELTEKMIRTRLVEIL | failed
